The source of these data is PMC4191077, “Modeling hemoglobin and hemoglobin:haptoglobin complex clearance in a non-rodent species–pharmacokinetic and therapeutic implications” (Frontiers in Physiology, 2014).

The experiment addresses T1, Dog haptoglobin (purified) (dog, UniProt P19006 1-83; P19006 85-329).
T1 construct: haptoglobin alpha chain, dog; haptoglobin beta chain, dog; The supplier is named only for the fluorescent labelling; also called dog Hp; source: bought: Lee Biosolutions (St. Louis, Missouri USA); copies: 2 + 2
T1 sequence (looked up) 1: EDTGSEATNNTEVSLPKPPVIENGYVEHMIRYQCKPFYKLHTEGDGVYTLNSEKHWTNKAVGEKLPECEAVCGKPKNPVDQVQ
T1 sequence (looked up) 2: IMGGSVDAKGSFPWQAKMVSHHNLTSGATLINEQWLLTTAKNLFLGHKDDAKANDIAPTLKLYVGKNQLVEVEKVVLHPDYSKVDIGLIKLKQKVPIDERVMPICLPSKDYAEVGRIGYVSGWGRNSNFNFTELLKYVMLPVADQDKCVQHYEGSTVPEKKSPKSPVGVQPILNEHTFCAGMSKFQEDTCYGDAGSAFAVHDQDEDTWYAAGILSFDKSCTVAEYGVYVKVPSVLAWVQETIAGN
The experiment is described as follows: SEC; purified standards of Hb and Hb:Hp complexes on a BioSep-SEC-S3000 column (600 x 7.5 mm), detection at 405 nm. As to conditions: both partners purified. On the technique in general: SEC sorts molecules by how far they enter the pores of the column.

B1: Dog hemoglobin (natural protein)
chain 1: not shown
chain 2: not shown
notes: hemoglobin subunit alpha, dog; hemoglobin subunit beta, dog; also called dog Hb; purified dog Hb; source: prepared using a standardized method previously described (Palmer et al., 2009)
With B1, the binding result is reported as “binds”.
